# Data from the Immune Epitope Database (IEDB).
# Assays:
# HLA-A*26:01 [1] = test: IEDB peptide-MHC binding, purified MHC/competitive/radioactivity; filed as Kd, often an IC50 or EC50 that approximates it; ≥ and ≤ were set here for values at or beyond the usual limits of such assays
# HLA-A*23:01 = test: as above
# HLA-A*32:01 = test: as above
# HLA-A*26:01 [2] = test: IEDB peptide-MHC binding, purified MHC/competitive/fluorescence; filed as Kd, often an IC50 or EC50 that approximates it; ≥ and ≤ were set here for values at or beyond the usual limits of such assays
# HLA-A*29:02 = test: IEDB peptide-MHC binding, purified MHC/competitive/radioactivity; filed as Kd, often an IC50 or EC50 that approximates it; ≥ and ≤ were set here for values at or beyond the usual limits of such assays
# HLA-A*24:02 = test: as above
# HLA-A*03:01 [3] = test: IEDB peptide-MHC binding, purified MHC/direct/fluorescence; filed as Kd, often an IC50 or EC50 that approximates it; ≥ and ≤ were set here for values at or beyond the usual limits of such assays; conditions: source organism: Francisella tularensis subsp. holarctica LVS
# HLA-A*31:01 [4] = test: as above; conditions: source organism: Francisella tularensis subsp. holarctica LVS
# HLA-A*30:02 = test: IEDB peptide-MHC binding, purified MHC/competitive/radioactivity; filed as Kd, often an IC50 or EC50 that approximates it; ≥ and ≤ were set here for values at or beyond the usual limits of such assays
# HLA-A*01:01 = test: as above
# HLA-B*44:02 = test: as above
# HLA-B*44:03 = test: as above
# HLA-A*11:01 = test: as above; conditions: source organism: Triticum aestivum
# HLA-A*03:01 [5] = test: as above; conditions: source organism: Triticum aestivum
# HLA-A*33:01 = test: as above; conditions: source organism: Triticum aestivum
# HLA-A*68:01 = test: as above; conditions: source organism: Triticum aestivum
# HLA-A*31:01 [6] = test: as above; conditions: source organism: Triticum aestivum
# HLA-A*02:01 = test: IEDB peptide-MHC binding, purified MHC/competitive/fluorescence; filed as Kd, often an IC50 or EC50 that approximates it; ≥ and ≤ were set here for values at or beyond the usual limits of such assays; conditions: source organism: Yersinia pestis Antiqua
# HLA-B*08:01 = test: IEDB peptide-MHC binding, purified MHC/competitive/radioactivity; filed as Kd, often an IC50 or EC50 that approximates it; ≥ and ≤ were set here for values at or beyond the usual limits of such assays
# HLA-A*30:01 = test: as above; conditions: source organism: Dengue virus 2 Jamaica/1409/1983
# [7] = source organism: Dengue virus 3 Martinique/1243/1999
# [8] = source organism: Dengue virus 2 Jamaica/1409/1983
# [9] = source organism: Mammarenavirus brazilense
# [10] = source organism: SARS coronavirus Tor2
# [11] = source organism: Vaccinia virus WR
# [12] = source organism: Triticum aestivum
# [13] = source organism: Mammarenavirus guanaritoense
# [14] = source organism: Dengue virus 4 Philippines/H241/1956
# [15] = source organism: Dengue virus 1 Brazil/97-11/1997
# [16] = source organism: Dengue virus 1 Singapore/S275/1990
# [17] = source organism: Vaccinia virus Copenhagen
sequence,measurement,setting,value
EALKGLPIRY,Kd,HLA-A*26:01 [1]; [7],10.1 µM
WHLGKLEMDF,Kd,HLA-A*23:01; [8],1.88 µM
RKDIQQWEPS,Kd,HLA-A*32:01; [8],3.87 µM
ELSQSMFHY,Kd,HLA-A*26:01 [2]; source organism: Bacillus cereus G9241,0.25 µM
LNYVIHKLF,Kd,HLA-A*23:01; [9],0.973 µM
same,Kd,HLA-A*29:02; [9],12.8 µM
same,Kd,HLA-A*24:02; [9],10.5 µM
MFMMIFHFV,Kd,HLA-A*03:01 [3],≥ 20 µM
same,Kd,HLA-A*31:01 [4],12 µM
NTNPIQLSSY,Kd,HLA-A*30:02; [10],0.0742 µM
same,Kd,HLA-A*23:01; [10],≥ 70 µM
same,Kd,HLA-A*29:02; [10],0.966 µM
same,Kd,HLA-A*01:01; [10],0.105 µM
same,Kd,HLA-A*24:02; [10],≥ 70.3 µM
same,Kd,HLA-A*26:01 [1]; [10],0.344 µM
AEMEEALKG,Kd,HLA-B*44:02; [7],0.0297 µM
same,Kd,HLA-B*44:03; [7],0.00534 µM
MIMYLVLGI,Kd,HLA-A*32:01; [11],0.0979 µM
LTNSVIIMAY,Kd,HLA-A*30:02; [10],0.0491 µM
same,Kd,HLA-A*23:01; [10],≥ 70 µM
same,Kd,HLA-A*29:02; [10],0.00807 µM
same,Kd,HLA-A*01:01; [10],0.0981 µM
same,Kd,HLA-A*24:02; [10],≥ 70.3 µM
same,Kd,HLA-A*26:01 [1]; [10],2 µM
SSQVLQQSTY,Kd,HLA-A*11:01,2.54 µM
same,Kd,HLA-A*30:02; [12],0.588 µM
same,Kd,HLA-A*23:01; [12],≥ 41.5 µM
same,Kd,HLA-A*03:01 [5],13.5 µM
same,Kd,HLA-A*29:02; [12],2.99 µM
same,Kd,HLA-A*33:01,19 µM
same,Kd,HLA-A*24:02; [12],≥ 42.3 µM
same,Kd,HLA-A*68:01,9.51 µM
same,Kd,HLA-A*31:01 [6],9 µM
same,Kd,HLA-A*26:01 [1]; [12],4.63 µM
ISGLFPVSI,Kd,HLA-A*32:01; source organism: Dengue virus 2 Peru/IQT2913/1996,1.26 µM
EIDETCEHEY,Kd,HLA-A*30:02; [10],1.06 µM
same,Kd,HLA-A*23:01; [10],≥ 70 µM
same,Kd,HLA-A*29:02; [10],0.656 µM
same,Kd,HLA-A*01:01; [10],0.197 µM
same,Kd,HLA-A*24:02; [10],≥ 70.3 µM
same,Kd,HLA-A*26:01 [1]; [10],0.492 µM
FFLPIFSEF,Kd,HLA-A*23:01; [13],0.000198 µM
same,Kd,HLA-A*29:02; [13],0.000921 µM
same,Kd,HLA-A*24:02; [13],0.0324 µM
LIIDEIGYL,Kd,HLA-A*02:01,0.0046 µM
same,Kd,HLA-A*26:01 [2]; source organism: Yersinia pestis Antiqua,0.0044 µM
AWRTIMAVLF,Kd,HLA-A*23:01; [14],0.0515 µM
same,Kd,HLA-A*24:02; [14],0.0221 µM
TPMLRHTIE,Kd,HLA-B*08:01; [7],0.00336 µM
KTKNNDWDY,Kd,HLA-A*30:02; [15],0.015 µM
same,Kd,HLA-A*01:01; [15],0.595 µM
EPGSSFKFL,Kd,HLA-B*08:01; [11],1.88 µM
RSFEIINVL,Kd,HLA-A*32:01; [11],0.0029 µM
NARLKPLDI,Kd,HLA-B*08:01; [11],0.000813 µM
TYQNKVVKVL,Kd,HLA-B*08:01; [14],0.155 µM
SEMAEALKG,Kd,HLA-B*44:02; [15],0.0145 µM
ETNYYIHPI,Kd,HLA-A*32:01; [11],0.368 µM
GPITTLWEGS,Kd,HLA-A*32:01; [7],2.87 µM
LWATLLSLTF,Kd,HLA-A*23:01; [16],0.0253 µM
same,Kd,HLA-A*24:02; [16],0.193 µM
LTIGVNYDI,Kd,HLA-A*32:01; [17],0.525 µM
ITEMGRLPTF,Kd,HLA-A*01:01; [8],17.5 µM
same,Kd,HLA-A*30:01,9.68 µM
EKMETLQRKY,Kd,HLA-A*26:01 [1]; [8],≥ 20.1 µM
MAGPLVAGGL,Kd,HLA-B*08:01; [7],1.07 µM
DTITYKCPLL,Kd,HLA-A*30:01,1.14 µM
same,Kd,HLA-A*26:01 [1]; [8],2.1 µM
YYMATLKNV,Kd,HLA-A*23:01; [14],0.319 µM
same,Kd,HLA-A*24:02; [14],0.0742 µM
RFFLPIFSEF,Kd,HLA-A*23:01; [13],0.000232 µM
same,Kd,HLA-A*29:02; [13],0.00103 µM
same,Kd,HLA-A*24:02; [13],0.0102 µM
VLLSKRPSL,Kd,HLA-B*08:01; [11],0.078 µM
LTSRENLLL,Kd,HLA-A*01:01; [7],0.418 µM
SDMQKFTIL,Kd,HLA-B*08:01; [11],0.0409 µM
RFLEFEALGF,Kd,HLA-A*23:01; [14],0.00144 µM
RLINNRVLF,Kd,HLA-A*32:01; [11],0.00567 µM
CIAIGIITLY,Kd,HLA-A*30:02; [7],≥ 69.7 µM
same,Kd,HLA-A*01:01; [7],7.45 µM
same,Kd,HLA-A*26:01 [1]; [7],0.121 µM
LRAQNALDNL,Kd,HLA-B*08:01; [15],1.36 µM
DTIETLMLLA,Kd,HLA-A*26:01 [1]; [15],0.228 µM
VIWILIVAI,Kd,HLA-A*32:01; [11],0.198 µM
LEENMDVEIW,Kd,HLA-B*44:02; [15],0.269 µM
same,Kd,HLA-B*44:03; [15],0.126 µM
LRKLTSRENL,Kd,HLA-B*08:01; [7],4.95 µM
AEPDDVDCW,Kd,HLA-B*44:02; [15],0.0374 µM
same,Kd,HLA-B*44:03; [15],0.236 µM
LMYNLLTII,Kd,HLA-A*32:01; [17],0.0302 µM
FPRYHSIEL,Kd,HLA-B*08:01; [11],0.000492 µM
VEGVSGGAW,Kd,HLA-B*44:02; [14],0.151 µM
same,Kd,HLA-B*44:03; [14],0.114 µM
SWKLEKASF,Kd,HLA-A*24:02; source organism: Dengue virus 3 Singapore/8120/1995,0.153 µM
KRRLRTLIL,Kd,HLA-B*08:01; [7],1 µM
